# Test results: PMC10841698 (Cell, 2023)
# Where two headings read alike, the source gives them in different places.
# B1: human Wnt7a with a C-terminal GG linker and 6xHis tag (ligand, UniProt O00755 32-349, looked up)
# chain: LGASIICNKIPGLAPRQRAICQSRPDAIIVIGEGSQMGLDECQFQFRNGRWNCSALGERTVFGKELKVGSREAAFTYAIIAAGVAHAITAACTQGNLSDCGCDKEKQGQYHRDEGWKWGGCSADIRYGIGFAKVFVDAREIKQNARTLMNLHNNEAGRKILEENMKLECKCHGVSGSCTTKTCWTTLPQFRELGYVLKDKYNEAVHVEPVRASRNKRPTFLKIKKPLSYRKPMDTDLVYIEKSPNYCEEDPVTGSVGTQGRACNKTAPQASGCDLMCCGRGYNTHQYARVWQCNCKFHWCCYVKCNTCSERTEMYTCK
# modifications: palmitoleate moiety (PAM) on the conserved serine of hairpin 2; N-glycan at Asn295
# B2: human Wnt7a with a C-terminal GG linker and Strep tag (ligand, UniProt O00755 32-349, looked up)
# chain: B1 chain
# modifications: palmitoleate moiety (PAM) on the conserved serine of hairpin 2; N-glycan at Asn295
# B3: human Wnt3a without a tag (ligand, UniProt P56704 19-352, looked up)
# chain: SYPIWWSLAVGPQYSSLGSQPILCASIPGLVPKQLRFCRNYVEIMPSVAEGIKIGIQECQHQFRGRRWNCTTVHDSLAIFGPVLDKATRESAFVHAIASAGVAFAVTRSCAEGTAAICGCSSRHQGSPGKGWKWGGCSEDIEFGGMVSREFADARENRPDARSAMNRHNNEAGRQAIASHMHLKCKCHGLSGSCEVKTCWWSQPDFRAIGDFLKDKYDSASEMVVEKHRESRGWVETLRPRYTYFKVPTERDLVYYEASPNFCEPNPETGSFGTRDRTCNVSSHGIDGCDLLCCGRGHNARAERRREKCRCVFHWCCYVSCQECTRVYDVHTCK
# modifications: palmitoleate moiety (PAM); N-glycan at Asn298
# Columns and labels:
# [1] = biological target: T1, human full-length RECK without a tag (human, UniProt O95980 23-942); assay: cryo-EM structure
# T1 sequence (looked up): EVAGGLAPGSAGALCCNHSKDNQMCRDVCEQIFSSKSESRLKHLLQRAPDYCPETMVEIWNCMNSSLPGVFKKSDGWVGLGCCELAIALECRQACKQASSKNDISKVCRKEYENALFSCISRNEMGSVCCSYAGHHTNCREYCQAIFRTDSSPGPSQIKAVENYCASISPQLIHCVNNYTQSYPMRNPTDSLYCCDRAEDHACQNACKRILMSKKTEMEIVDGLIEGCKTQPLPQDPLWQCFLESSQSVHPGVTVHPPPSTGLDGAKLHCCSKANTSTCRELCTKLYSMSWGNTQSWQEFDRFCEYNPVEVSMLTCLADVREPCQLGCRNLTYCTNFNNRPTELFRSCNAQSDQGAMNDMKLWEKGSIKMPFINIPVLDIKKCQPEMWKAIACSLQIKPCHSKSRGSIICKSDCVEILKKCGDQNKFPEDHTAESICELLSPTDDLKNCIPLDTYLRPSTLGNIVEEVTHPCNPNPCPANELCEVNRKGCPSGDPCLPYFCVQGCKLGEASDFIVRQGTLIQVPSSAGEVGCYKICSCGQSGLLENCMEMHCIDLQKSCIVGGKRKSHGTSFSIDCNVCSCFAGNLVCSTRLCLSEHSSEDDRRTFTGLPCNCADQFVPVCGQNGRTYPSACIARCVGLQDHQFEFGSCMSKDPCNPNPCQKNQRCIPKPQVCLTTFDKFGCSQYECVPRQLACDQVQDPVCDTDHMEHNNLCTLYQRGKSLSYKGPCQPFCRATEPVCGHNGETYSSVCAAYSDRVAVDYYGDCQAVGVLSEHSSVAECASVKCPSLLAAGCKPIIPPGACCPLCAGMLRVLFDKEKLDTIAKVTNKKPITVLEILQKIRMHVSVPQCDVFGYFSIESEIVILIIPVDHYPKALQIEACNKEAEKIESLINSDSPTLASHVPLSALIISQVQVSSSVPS
# [2] = biological target: T2, endogenous calreticulin (CALR) of HEK293 cells (human (endogenous in HEK293S GnTI-), UniProt P27797 18-417); assay: cryo-EM structure
# T2 sequence (looked up): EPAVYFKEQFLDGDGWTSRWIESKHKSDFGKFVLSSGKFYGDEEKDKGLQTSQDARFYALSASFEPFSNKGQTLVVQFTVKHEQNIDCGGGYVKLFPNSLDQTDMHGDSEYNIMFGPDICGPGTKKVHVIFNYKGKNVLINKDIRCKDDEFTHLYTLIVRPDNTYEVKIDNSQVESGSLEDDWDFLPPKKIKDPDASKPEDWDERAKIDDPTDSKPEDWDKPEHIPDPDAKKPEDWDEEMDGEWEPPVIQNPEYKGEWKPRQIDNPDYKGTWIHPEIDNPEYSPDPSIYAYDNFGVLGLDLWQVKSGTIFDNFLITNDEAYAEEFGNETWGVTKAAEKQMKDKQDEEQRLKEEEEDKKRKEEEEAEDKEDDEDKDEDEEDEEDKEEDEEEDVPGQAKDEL
# [3] = biological target: T3, human Wntless (WLS) with a C-terminal Flag tag (human, UniProt Q5T9L3 1-541); assay: co-IP
# T3 sequence: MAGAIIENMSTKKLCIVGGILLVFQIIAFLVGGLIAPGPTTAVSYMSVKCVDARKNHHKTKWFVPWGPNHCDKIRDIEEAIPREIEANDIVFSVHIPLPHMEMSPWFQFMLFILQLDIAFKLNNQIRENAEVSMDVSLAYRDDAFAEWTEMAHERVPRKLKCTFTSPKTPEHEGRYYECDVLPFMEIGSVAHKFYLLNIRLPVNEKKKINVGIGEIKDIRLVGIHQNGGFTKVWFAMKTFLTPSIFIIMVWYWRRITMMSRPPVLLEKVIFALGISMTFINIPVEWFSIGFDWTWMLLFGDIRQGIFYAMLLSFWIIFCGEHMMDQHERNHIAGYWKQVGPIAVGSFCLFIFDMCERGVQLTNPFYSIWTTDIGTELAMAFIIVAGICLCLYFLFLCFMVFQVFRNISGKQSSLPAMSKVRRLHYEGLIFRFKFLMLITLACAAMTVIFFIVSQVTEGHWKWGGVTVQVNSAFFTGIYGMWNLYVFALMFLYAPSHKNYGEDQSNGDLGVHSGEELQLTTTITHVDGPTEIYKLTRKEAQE
# [4] = biological target: T3, human Wntless (WLS) with a C-terminal …; assay: cryo-EM structure
# [5] = biological target: T2, endogenous calreticulin (CALR) of …; assay: cryo-EM structure; remark: listed apart in the source
binder,measurement,setting,value
B1,binding result,[1],binds
same,binding result,[2],binds
B2,binding result,[3],binds
B3,binding result,[4],binds
same,binding result,[5],binds
